Experimental data as given in PMC12141716, “An archaeal nucleoid-associated protein binds an essential motif in DNA replication origins” (Nature Communications, 2025).

What was measured:
[1] = biological target: UBP (ucm-binding protein), recombinant wild type (Sulfolobus islandicus REY15A) (UniProt F0NFD3); experiment: crystal structure; DNA-free UBP, two crystal forms (C2221 and twinned P21 with four dimers in the asymmetric unit); sodium acetate pH 4.8-5.2, PEG6000, 20 °C
[2] = biological target: T1, MCM replicative helicase, full-length recombinant (Sulfolobus islandicus REY15A, UniProt F0NF15 1-686); experiment: MCM recruitment (in vitro loading) assay on bead-bound origin DNA; 200 pM DNA on magnetic beads, UBP and/or Orc1-1 E147A 1 µM, 2 mM ATP, 50 °C, MCM 12.9 nM; washes with binding buffer and with 500 mM potassium acetate; western blot; settings: both partners purified
T1 construct: MCM replicative helicase, Sulfolobus islandicus REY15A, SiRe_1228; The introduction and discussion call archaeal MCM a homohexamer (cited work); also called full-length MCM; recombinant MCM
T1 sequence (looked up): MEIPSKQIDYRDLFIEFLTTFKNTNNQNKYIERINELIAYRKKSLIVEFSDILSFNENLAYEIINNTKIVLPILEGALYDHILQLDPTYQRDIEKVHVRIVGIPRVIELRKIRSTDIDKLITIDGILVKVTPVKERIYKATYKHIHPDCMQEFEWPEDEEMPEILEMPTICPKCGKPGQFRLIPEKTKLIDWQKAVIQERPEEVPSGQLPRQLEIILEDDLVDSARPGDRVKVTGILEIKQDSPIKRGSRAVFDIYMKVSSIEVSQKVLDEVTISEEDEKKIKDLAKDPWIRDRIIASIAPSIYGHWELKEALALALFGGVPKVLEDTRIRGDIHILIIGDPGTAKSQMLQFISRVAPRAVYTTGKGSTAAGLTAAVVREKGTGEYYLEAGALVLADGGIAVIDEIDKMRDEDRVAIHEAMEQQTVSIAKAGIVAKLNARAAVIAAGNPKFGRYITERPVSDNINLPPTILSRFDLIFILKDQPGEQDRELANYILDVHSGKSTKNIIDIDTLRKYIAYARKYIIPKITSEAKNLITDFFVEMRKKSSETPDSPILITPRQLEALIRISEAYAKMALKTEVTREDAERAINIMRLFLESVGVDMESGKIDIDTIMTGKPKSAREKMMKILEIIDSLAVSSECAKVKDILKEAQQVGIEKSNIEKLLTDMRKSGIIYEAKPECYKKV

UBP [3] = biological target: T2, UBP (Sulfolobus islandicus REY15A, UniProt F0NFD3 1-111); experiment: EMSA; EMSA: 50 mM K-acetate, 20 mM Tris-acetate, 10 mM Mg-acetate, 1 mM DTT, pH 7.9, 5-10% glycerol, 70 mM NaCl, 800 ng salmon sperm DNA per 10 ul, room temperature 10 min; footprinting same buffer, 4% glycerol, 8000 ng salmon sperm DNA; pull-down 25 mM HEPES pH 7.5, 150 mM NaCl, 10 mM MgCl, 100 uM ZnCl, 10 mM DTT, 48 C; settings: protein: recombinant; tags: MBP tag removed by Factor Xa; 3 extra vector residues at N-terminus; chain copies: 2; label: 5'-32P; blunt
T2 sequence: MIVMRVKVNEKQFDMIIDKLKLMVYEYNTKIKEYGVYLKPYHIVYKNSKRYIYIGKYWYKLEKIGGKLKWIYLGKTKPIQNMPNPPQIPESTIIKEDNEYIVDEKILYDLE

UBP (DNA co-crystal) = biological target: T3, UBP (DNA co-crystal) (Sulfolobus islandicus REY15A, UniProt F0NFD3 1-111); experiment: X-ray crystallography; 1.8 A; EMSA: 50 mM K-acetate, 20 mM Tris-acetate, 10 mM Mg-acetate, 1 mM DTT, pH 7.9, 5-10% glycerol, 70 mM NaCl, 800 ng salmon sperm DNA per 10 ul, room temperature 10 min; footprinting same buffer, 4% glycerol, 8000 ng salmon sperm DNA; pull-down 25 mM HEPES pH 7.5, 150 mM NaCl, 10 mM MgCl, 100 uM ZnCl, 10 mM DTT, 48 C; settings: protein: recombinant; tags: MBP tag removed by Factor Xa; 3 extra vector residues at N-terminus; blunt
T3 sequence: T2 sequence

UBP;MCM = biological target: T4, UBP;MCM (Sulfolobus islandicus REY15A;Sulfolobus …, UniProt F0NFD3;F0NF15 1-111;1-686, |); experiment: EMSA; 370 nM UBP; preferred over naked DNA; EMSA: 50 mM K-acetate, 20 mM Tris-acetate, 10 mM Mg-acetate, 1 mM DTT, pH 7.9, 5-10% glycerol, 70 mM NaCl, 800 ng salmon sperm DNA per 10 ul, room temperature 10 min; footprinting same buffer, 4% glycerol, 8000 ng salmon sperm DNA; pull-down 25 mM HEPES pH 7.5, 150 mM NaCl, 10 mM MgCl, 100 uM ZnCl, 10 mM DTT, 48 C; settings: protein: recombinant;recombinant; tags: MBP tag removed by Factor Xa; 3 extra vector residues at N-terminus;; label: 5'-32P; blunt
T4 sequence 1: T2 sequence
T4 sequence 2: T1 sequence (looked up)

UBP;MCM-NT = biological target: T5, UBP;MCM-NT (Sulfolobus islandicus REY15A;Sulfolobus …, UniProt F0NFD3;F0NF15 1-111;1-266, |); experiment: as above; settings: protein: recombinant;recombinant; tags: MBP tag removed by Factor Xa; 3 extra vector residues at N-terminus;C-terminal 6xHis; label: 5'-32P; blunt
T5 sequence 1: T2 sequence
T5 sequence 2: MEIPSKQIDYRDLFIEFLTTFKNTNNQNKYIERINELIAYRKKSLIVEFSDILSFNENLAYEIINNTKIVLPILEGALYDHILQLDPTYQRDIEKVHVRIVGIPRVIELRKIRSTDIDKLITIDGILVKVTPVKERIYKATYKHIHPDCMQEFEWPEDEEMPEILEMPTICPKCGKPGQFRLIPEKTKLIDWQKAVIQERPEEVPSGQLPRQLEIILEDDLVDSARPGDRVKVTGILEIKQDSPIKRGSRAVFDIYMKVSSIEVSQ

MCM = biological target: T6, MCM (UniProt F0NF15 1-686); experiment: EMSA; without UBP; EMSA: 50 mM K-acetate, 20 mM Tris-acetate, 10 mM Mg-acetate, 1 mM DTT, pH 7.9, 5-10% glycerol, 70 mM NaCl, 800 ng salmon sperm DNA per 10 ul, room temperature 10 min; footprinting same buffer, 4% glycerol, 8000 ng salmon sperm DNA; pull-down 25 mM HEPES pH 7.5, 150 mM NaCl, 10 mM MgCl, 100 uM ZnCl, 10 mM DTT, 48 C; settings: protein: recombinant; chain copies: 6; label: 5'-32P; blunt
T6 sequence: T1 sequence (looked up)

MCM-NT = biological target: T7, MCM-NT (Sulfolobus islandicus REY15A, UniProt F0NF15 1-266); experiment: as above; settings: protein: recombinant; tags: C-terminal 6xHis; chain copies: 6; label: 5'-32P; blunt
T7 sequence: T5 sequence 2

UBP [4] = biological target: T2, UBP; experiment: EMSA; 370 nM UBP; EMSA: 50 mM K-acetate, 20 mM Tris-acetate, 10 mM Mg-acetate, 1 mM DTT, pH 7.9, 5-10% glycerol, 70 mM NaCl, 800 ng salmon sperm DNA per 10 ul, room temperature 10 min; footprinting same buffer, 4% glycerol, 8000 ng salmon sperm DNA; pull-down 25 mM HEPES pH 7.5, 150 mM NaCl, 10 mM MgCl, 100 uM ZnCl, 10 mM DTT, 48 C; settings: protein: recombinant; tags: MBP tag removed by Factor Xa; 3 extra vector residues at N-terminus; chain copies: 2; label: 5'-32P; blunt
UBP [5] = biological target: T2, UBP; experiment: EMSA; 0-740 nM UBP; EMSA: 50 mM K-acetate, 20 mM Tris-acetate, 10 mM Mg-acetate, 1 mM DTT, pH 7.9, 5-10% glycerol, 70 mM NaCl, 800 ng salmon sperm DNA per 10 ul, room temperature 10 min; footprinting same buffer, 4% glycerol, 8000 ng salmon sperm DNA; pull-down 25 mM HEPES pH 7.5, 150 mM NaCl, 10 mM MgCl, 100 uM ZnCl, 10 mM DTT, 48 C; settings: protein: recombinant; tags: MBP tag removed by Factor Xa; 3 extra vector residues at N-terminus; chain copies: 2; label: 5'-32P; blunt
UBP [6] = biological target: T2, UBP; experiment: EMSA; up to 740 nM UBP; EMSA: 50 mM K-acetate, 20 mM Tris-acetate, 10 mM Mg-acetate, 1 mM DTT, pH 7.9, 5-10% glycerol, 70 mM NaCl, 800 ng salmon sperm DNA per 10 ul, room temperature 10 min; footprinting same buffer, 4% glycerol, 8000 ng salmon sperm DNA; pull-down 25 mM HEPES pH 7.5, 150 mM NaCl, 10 mM MgCl, 100 uM ZnCl, 10 mM DTT, 48 C; settings: protein: recombinant; tags: MBP tag removed by Factor Xa; 3 extra vector residues at N-terminus; chain copies: 2; label: 5'-32P

“UBP (ucm-binding protein), recombinant wild type (from UniProt F0NFD3 1-111)” was tested, and the stoichiometry N [1] was 2.

B1: Orc1-1 E147A (Walker B mutant) (natural protein, Sulfolobus islandicus REY15A, UniProt F0NBP2 1-397, looked up)
chain: MSDIIDEVISSFRTSSIFVNREYLMPDYIPDELPHRENQIRKIASILAPLYREEKPNNIFIYGLTGTGKTAVVKFVLSRFHKKFLGKFKYIYINTRQIDTPYRVLADLLESLDVKVPFTGLSIAELYRRLVKAIREYDSQVVIVLDAIDAFVKRYNDDILYKLSRINSEVNRSKVSFIGITNDVKFVDLLDPRVKSSLSEEEIVFPPYNAEELEDILTKRAQMAFRPGVLPDNVIRLCAALAAREHGDARRALDLLRVAGEIAERLKDSKVKEEYVHLAKEEIERDRVRDIILTLPFHSKLVLTAVASMSSEDNVVLTTGAVYETYLNICKKLGVEPITQRRVSDIINELDMVGILRAKVVNRGRYGKTKEIGLAVDKNIIVKSLIESDSRFADLWG
notes: Orc1-1 replication initiator, Sulfolobus islandicus REY15A, SiRe_1740
B1: binds [2].

B2: ucm 50 bp WT (P5/P6) (dsDNA)
DNA 1: TTGTTATAATTAGATAACCATTATACAAAAGAATTGTATAAGAATGAAAT
DNA 2: ATTTCATTCTTATACAATTCTTTTGTATAATGGTTATCTAATTATAACAA
B2: binds (UBP [3]).

B3: scr 50 bp (P7/P8) (dsDNA)
DNA 1: ATAATATTTGAAATTAAATGCTTAGTGAATATACGTACAGAATAAAAATT
DNA 2: AATTTTTATTCTGTACGTATATTCACTAAGCATTTAATTTCAAATATTAT
B3: no binding (UBP [3]).

B4: 12 bp ucm crystal DNA (P49/P50) (dsDNA)
DNA 1: ATTATACAAAAG
DNA 2: CTTTTGTATAAT
modifications: 5-bromo-dU at positions 2 and 5 of strand 1 and 2 and 9 of strand 2 (written T)
B4: binds (UBP (DNA co-crystal)).

B5: oriC1 140 bp (P21/P22) (dsDNA)
DNA 1: TATTTTGAGCAACATTTTGTTATAATTAGATAACCATTATACAAAAGAATTGTATAAGAATGAAATCAAAGCTTATTTTATGTCACTAGAATCTCCAAATGAAATACTGGGGTAGGCCTTGTTTATGACACAACTTACAT
DNA 2: ATGTAAGTTGTGTCATAAACAAGGCCTACCCCAGTATTTCATTTGGAGATTCTAGTGACATAAAATAAGCTTTGATTTCATTCTTATACAATTCTTTTGTATAATGGTTATCTAATTATAACAAAATGTTGCTCAAAATA
B5: binds (UBP;MCM); binds (UBP;MCM-NT); binds (MCM). B5: binds (MCM-NT); binds (UBP [4]).

B6: ucm 20 bp (P17/P18) (dsDNA)
DNA 1: AACCATTATACAAAAGAATT
DNA 2: AATTCTTTTGTATAATGGTT
B6: binds (UBP [5]).

AACCATTATACAAAAGAATT (ssDNA) [ucm 20 nt top strand (P17)]: no binding (UBP [6]).

AATTCTTTTGTATAATGGTT (ssDNA) [ucm 20 nt lower strand (P18)]: no binding (UBP [6]).
